Source: patent US20240100133A1, “ENZYMATICALLY INACTIVE GRANZYME A AND USES THEREFORE” (Saint Louis University, priority 2022, published 2024)

Tests used:
Rab11-FIP1 = test: Quantitative shotgun proteomics of treated and infected monocytes; format: cell-based, human; conditions: 200 nM GzmA, infected cells (MOI=3), overnight
Experimental: Quantitative shotgun proteomics. 1.5e5 human monocytes were either treated or not with 200 nM GzmA, and infected or not with mycobacteria (MOI=3) overnight. After incubation, cells were then washed thrice with PBS, and the pellet lysed using lysis buffer from EasyPep Mini MS Sample Prep Kit (Cat #A40006, Thermo-Fisher, Waltham, MA) supplemented with 1:100 HALT phosphatase inhibitor (Cat #78420, Thermo-Fisher, Waltham, MA). Lysis, reduction/alkylation, protein digestion, and peptide clean-up were performed according to EasyPep recommendations. […] After peptide cleanup, samples were dried using a vacuum centrifuge, and then resuspended in 0.1% formic acid in water for LC-MS analysis. The samples were analyzed on a Q-Exactive orbitrap MS/MS equipped with a nanospray emitter (Thermo Fisher Scientific, Waltham, MA). Nanospray parameters in positive ion mode were as follows: spray voltage, 2.0 KV; capillary temperature, 320° C.; S-lens RF level, 55. […] The MS/MS spectra were analyzed using Sequest HT and MSPepSearch, both integrated in Proteome Discoverer 2.4.1.15 (Thermo Scientific, MA). […] Finally, the results were subjected to statistical analysis using percolator node where the False discovery rate (FDR) was calculated using a decoy database search and only high confidence peptide identifications with FDR 0.01 were included. […]

CD14 = target: T1, CD14 (Homo sapiens, UniProt P08571); test: Immunoprecipitation with anti-GzmA, probed for CD14; conditions: human monocyte lysates, infected and uninfected cells
T1 sequence (P08571 20-345): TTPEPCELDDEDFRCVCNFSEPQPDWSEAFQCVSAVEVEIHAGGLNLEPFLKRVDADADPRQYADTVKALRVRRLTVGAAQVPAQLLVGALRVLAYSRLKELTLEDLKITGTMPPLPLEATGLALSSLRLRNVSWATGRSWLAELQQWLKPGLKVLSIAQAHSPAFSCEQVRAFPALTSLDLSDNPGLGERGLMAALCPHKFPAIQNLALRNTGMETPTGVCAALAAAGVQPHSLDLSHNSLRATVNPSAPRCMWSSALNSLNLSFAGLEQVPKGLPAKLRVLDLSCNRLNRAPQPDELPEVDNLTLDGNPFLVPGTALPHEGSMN

TLR4 = TLR4 (Homo sapiens, UniProt O00206); test: Immunoprecipitation with anti-GzmA, probed for TLR4; conditions: human monocyte lysates, infected and uninfected cells
Sequence of TLR4 (O00206 24-839): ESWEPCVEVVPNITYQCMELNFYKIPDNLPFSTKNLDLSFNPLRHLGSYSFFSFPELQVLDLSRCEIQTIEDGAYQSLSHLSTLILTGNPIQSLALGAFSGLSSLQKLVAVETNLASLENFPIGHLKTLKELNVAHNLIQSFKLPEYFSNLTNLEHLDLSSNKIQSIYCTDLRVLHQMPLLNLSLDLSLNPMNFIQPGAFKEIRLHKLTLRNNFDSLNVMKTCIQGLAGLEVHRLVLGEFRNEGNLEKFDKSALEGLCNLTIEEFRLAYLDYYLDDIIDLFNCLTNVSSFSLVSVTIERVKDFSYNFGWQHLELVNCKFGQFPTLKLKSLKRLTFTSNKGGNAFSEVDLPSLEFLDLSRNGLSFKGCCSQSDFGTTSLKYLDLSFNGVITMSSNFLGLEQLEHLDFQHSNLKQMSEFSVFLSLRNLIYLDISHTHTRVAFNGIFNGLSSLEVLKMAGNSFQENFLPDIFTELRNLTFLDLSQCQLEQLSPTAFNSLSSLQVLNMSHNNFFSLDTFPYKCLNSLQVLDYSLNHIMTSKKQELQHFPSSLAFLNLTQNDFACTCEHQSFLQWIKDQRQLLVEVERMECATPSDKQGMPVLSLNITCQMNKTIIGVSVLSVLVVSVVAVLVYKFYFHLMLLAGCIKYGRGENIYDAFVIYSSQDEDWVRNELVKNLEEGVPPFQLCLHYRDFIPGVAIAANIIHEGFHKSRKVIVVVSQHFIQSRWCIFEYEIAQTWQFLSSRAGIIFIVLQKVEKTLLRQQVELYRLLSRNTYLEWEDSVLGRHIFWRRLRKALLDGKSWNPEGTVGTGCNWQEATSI

mycobacteria BCG-GFP = format: binding

B1: GzmA-WT: recombinant wild-type human Granzyme A, homodimeric serine protease, purified from HEK293T supernatants (protein)
chain: IIGGNEVTPHSRPYMVLLSLDRKTICAGALIAKDWVLTAAHCNLNKRSQVILGAHSITREEPTKQIMLVKKEFPYPCYDPATREGDLKLLQLMEKAKINKYVTILHLPKKGDDVKPGTMCQVAGWGRTHNSASWSDTLREVNITIIDRKVCNDRNHYNFNPVIGMNMVCAGSLRGGRDSCNGDSGSPLLCEGVFRGVTSFGLENKCGDPRGPGVYILLSKKHLNWIIMTIKGAV
modifications: left off: small tags and cut ends
notes: recombinant wild-type human Granzyme A, homodimeric serine protease, purified from HEK293T supernatants
- Rab11-FIP1 protein level (Rab11-FIP1): upregulated
- binding to CD14 (immunoprecipitation) (CD14): bound to CD14
- binding to TLR4 (immunoprecipitation) (TLR4): bound to GzmA-WT
- binding to mycobacteria (mycobacteria BCG-GFP): bound mycobacteria
